Assay results taken from paper PMC3230689.

Assays:
FUS (FLAGHA-FUS-His6) [1] = target: T1, FUS (FLAGHA-FUS-His6) (human, UniProt P35637 1-526); experiment: EMSA
FUS (FLAGHA-FUS-His6) [2] = target: T1, FUS (FLAGHA-FUS-His6); experiment: EMSA; remark: listed apart in the source

T1 sequence (P35637 whole entry): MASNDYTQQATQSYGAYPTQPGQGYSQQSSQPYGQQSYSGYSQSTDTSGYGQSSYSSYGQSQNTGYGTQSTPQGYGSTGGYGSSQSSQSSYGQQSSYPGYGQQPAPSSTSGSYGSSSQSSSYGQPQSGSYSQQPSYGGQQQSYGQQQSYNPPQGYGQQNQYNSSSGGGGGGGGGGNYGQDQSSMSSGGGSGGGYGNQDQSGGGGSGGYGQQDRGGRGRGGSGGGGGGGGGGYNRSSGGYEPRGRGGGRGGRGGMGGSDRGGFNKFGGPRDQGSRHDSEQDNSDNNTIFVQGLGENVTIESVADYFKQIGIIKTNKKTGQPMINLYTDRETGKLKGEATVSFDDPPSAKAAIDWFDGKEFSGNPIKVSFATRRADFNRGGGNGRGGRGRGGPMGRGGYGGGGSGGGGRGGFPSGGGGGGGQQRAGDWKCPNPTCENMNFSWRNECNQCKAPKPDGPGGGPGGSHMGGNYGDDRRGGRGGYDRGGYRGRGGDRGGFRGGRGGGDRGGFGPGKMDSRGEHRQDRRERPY

Binder | binding result (FUS (FLAGHA-FUS-His6) [1]) | Kd (FUS (FLAGHA-FUS-His6) [1]) [nM] | also measured
GAUUAAGAUAUAACUACUCUAUCUUCUGAACAUGACA (structured_RNA) [SON_BA (reconstituted right-left stem)] | binds |  | 
AUUAUUAUUAUUAUUAUUAUUAUUAUUAUUAUUAUU (structured_RNA) [AUU trinucleotide repeat (x12)] |  | 198 | 
GGUGGUGGUGGUGGUGGUGGUGGUGGUGGUGGUGGU (ssRNA) [GGU trinucleotide repeat (x12)] |  |  | binding signal (FUS (FLAGHA-FUS-His6) [2]): > 15 fold lower Kd than SON_AB (at least; as worded in text)
GAUUUAUCUUUAACUACUCAAGAUACUGAACAUGACA (structured_RNA) [SON_AB (natural left-right stem)] |  | 148 | 
GAUUAAGAUAUAACUACUCAAGAUACUGAACAUGACA (ssRNA) [SON_BB (non-complementary right-right stem)] | no binding |  | 
